The values that follow come from patent publication US20250361322A1 (ICONIC THERAPEUTICS, published 2025).

For one test, the target named is human Tissue Factor (TF) (human, UniProt P13726 33-295). As to the kind of experiment: cell-based or functional assay.
In test [1] the target is T1, human Tissue Factor (hTF) (human, UniProt P13726 33-295). As to the kind of experiment: cell-based or functional assay.
Test [2] concerns the target T1, human Tissue Factor (hTF). In words: cell-based or functional assay. The source holds these as a separate data set.
Test [3] deals with T2, rabbit TF ECD-His (TF-His) protein (rabbit (Oryctolagus cuniculus), UniProt P24055 33-250).
T2 construct: also called rabbit TF-His
As to the kind of experiment: Biacore; antibody captured by anti-human IgG on CM5 chip, titration of rabbit TF-His, 1:1 model.
Protocol: The ability of certain antibodies was tested for binding to rabbit TF. For rabbit TF Biacore-based measurements, a given anti-TF antibody was captured by an anti-human IgG antibody covalently coupled to a CM5 chip (GE Healthcare Bio-Sciences). Association between the anti-TF antibodies and a five-point three-fold titration of rabbit TF-His starting at 100 nM was measured for 180 to 240 sec. Subsequently, dissociation between the anti-TF antibody and TF-His was measured for 1800 sec. Kinetic data was analyzed and fitted globally using a 1:1 binding model.

The target in test [4] is T3, pig TF ECD-His (TF-His) protein (pig (Sus scrofa)).
T3 construct: also called pig TF-His; pTF
T3 chain: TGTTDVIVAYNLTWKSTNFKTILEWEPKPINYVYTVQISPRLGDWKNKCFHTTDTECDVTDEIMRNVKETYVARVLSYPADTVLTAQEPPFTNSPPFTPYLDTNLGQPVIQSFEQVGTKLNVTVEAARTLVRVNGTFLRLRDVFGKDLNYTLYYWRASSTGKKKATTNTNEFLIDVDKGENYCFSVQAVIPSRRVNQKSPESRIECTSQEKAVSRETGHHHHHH
In words: Biacore; antibody captured by anti-human IgG on CM5 chip, titration of pig TF-His, 1:1 model. (Surface plasmon resonance follows binding to a sensor surface in real time, without labels.)
Protocol: The ability of certain antibodies was tested for binding to pig TF. For pig TF Biacore-based measurements, a given anti-TF antibody was captured by an anti-human IgG antibody covalently coupled to a CM5 chip (GE Healthcare Bio-Sciences). Association between the anti-TF antibodies and a five-point three-fold titration of pig TF-His starting at 100 nM was measured for 180 to 240 sec. Subsequently, dissociation between the anti-TF antibody and TF-His was measured for 1800 sec. Kinetic data was analyzed and fitted globally using a 1:1 binding model.

T2 sequence (P24055 other isoform, or with tags, fused parts or gaps): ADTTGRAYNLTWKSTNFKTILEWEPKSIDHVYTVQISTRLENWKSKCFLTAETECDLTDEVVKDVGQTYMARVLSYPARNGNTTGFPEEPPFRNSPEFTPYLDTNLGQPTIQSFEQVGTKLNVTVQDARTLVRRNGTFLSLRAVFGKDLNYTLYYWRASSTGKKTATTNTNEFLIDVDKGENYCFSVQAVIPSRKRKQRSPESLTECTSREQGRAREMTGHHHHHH

B1: 5G9 (humanized TF8-5G9, CNTO 860) (antibody, V domains shown)
VH: QVQLVESGGGVVQPGRSLRLSCKASGFNIKDYYMHWVRQAPGKGLEWIGLIDPENGNTIYDPKFQGRFTISADNSKNTLFLQMDSLRPEDTAVYYCARDNSYYFDYWGQGTPVTVSS
VL: DIQMTQSPSSLSASVGDRVTITCKASQDIRKYLNWYQQKPGKAPKLLIYYATSLADGVPSRFSGSGSGTDYTFTISSLQPEDIATYYCLQHGESPYTFGQGTKLEIT
Turning to B1, in the test with human Tissue Factor (TF), the “% FXa at 12.5 nM antibody” value is 37%, the “% FXa at 25 nM antibody” value amounted to 33%, the “% FXa at 50 nM antibody” value came out at 30% and the “% FXa at 100 nM antibody” value was 30%.

B2: tisotumab vedotin (TF-011) ADC (antibody, V domains shown)
VH: EVQLLESGGGLVQPGGSLRLSCAASGFTFSNYAMSWVRQAPGKGLEWVSSISGSGDYTYYTDSVKGRFTISRDNSKNTLYLQMNSLRAEDTAVYYCARSPWGYYLDSWGQGTLVTVSS
VL: DIQMTQSPPSLSASAGDRVTITCRASQGISSRLAWYQQKPEKAPKSLIYAASSLQSGVPSRFSGSGSGTDFTLTISSLQPEDFATYYCQQYNSYPYTFGQGTKLEIK
modifications: MC-vc-PAB-MMAE on cysteines of the partially reduced antibody (chain and positions not stated), DAR 3-4
Regarding B2, the “IC50, cell viability of A431 cells, Primary ADC, 4 hr, followed by washout (FIG. 20B)” value (from here on “IC50, cell viability of A431 cells … (FIG. 20B)”) in test [1] came out at 0.17 nM. Further, in test [2], the “IC50, cell viability of A431 cells, Primary ADC, Continuous (FIG. 20A)” value (“IC50, cell viability of A431 cells … (FIG. 20A)” for short) worked out at 0.05 nM.

B3: anti-TF antibody 25A (antibody, human IgG1, V domains shown)
VH: QVQLVQSGAEVKKPGASVKVSCKASGYTFDVYGISWVRQAPGQGLEWMGWIAPYNGNTNYAQKLQGRVTMTTDTSTSTAYMELRSLRSDDTAVYYCARDAGTYSPFGYGMDVWGQGTTVTVSS
VL: DIQMTQSPSTLSASVGDRVTITCRASQSISSWLAWYQQKPGKAPKLLIYKASSLESGVPSRFSGSGSGTEFTLTISSLQPDDFATYYCQQFQSLPPFTFGGGTKVEIK
notes: Human IgG1
As usually defined, the Kd is the equilibrium constant for the complex coming apart. Read a low Kd as higher affinity. With B3, the figures for the equilibrium dissociation constant (Kd) in test [3] and in test [4] were 50.5 nM and 18.7 nM, respectively. In addition, in test [2], the “IC50, cell viability of A431 cells, Secondary ADC (antibody with anti-human Fc Fab:MMAF), Continuous (FIG. 18B)” value (from here on “IC50, cell viability of A431 cells … (FIG. 18B)”) was found to be 0.11 nM.

B4: anti-TF antibody 25A5-T (antibody, human IgG1, V domains shown)
VH: QVQLVQSGAEVKKPGASVKVSCKASGYTFDAYGISWVRQAPGQGLEWMGWIAPYSGNTNYAQKLQGRVTMTTDTSTSTAYMELRSLRSDDTAVYYCARDAGTYSPFGYGMDVWGQGTTVTVSS
VL: DIQMTQSPSTLSASVGDRVTITCRASESISNWLAWYQQKPGKAPKLLIYKAYSLEYGVPSRFSGSGSGTEFTLTISSLQPDDFATYYCQQFQKLPPFTFGGGTKVEIK
notes: Human IgG1
Regarding B4, the Kd was determined as 5.4 nM in test [3] and 4.5 nM in test [4].

B5: anti-TF antibody 25G (antibody, human IgG1, V domains shown)
VH: QVQLVQSGAEVKKPGASVKVSCKASGYTFRSYGISWVRQAPGQGLEWMGWVAPYNGNTNYAQKLQGRVTMTTDTSTSTAYMELRSLRSDDTAVYYCARDAGTYSPYGYGMDVWGQGTTVTVSS
VL: DIQMTQSPSTLSASVGDRVTITCRASQSISSWLAWYQQKPGKAPKLLIYKASSLESGVPSRFSGSGSGTEFTLTISSLQPDDFATYYCQQFQSLPPFTFGGGTKVEIK
notes: Human IgG1
Regarding B5, the Kd in test [3] worked out at 75.5 nM; in test [4], 26 nM.

B6: anti-TF antibody 25G1 (antibody, human IgG1, V domains shown)
VH: QVQLVQSGAEVKKPGASVKVSCKASGYTFRSYGISWVRQAPGQGLEWMGWVAPYSGNTNYAQKLQGRVTMTTDTSTSTAYMELRSLRSDDTAVYYCARDAGTYSPYGYGMDVWGQGTTVTVSS
VL: DIQMTQSPSTLSASVGDRVTITCRASHSIDSWLAWYQQKPGKAPKLLIYKASYLESGVPSRFSGSGSGTEFTLTISSLQPDDFATYYCQLFQSLPPFTFGGGTKVEIK
notes: Human IgG1
With B6, the equilibrium dissociation constant (Kd) in test [3] worked out at 3.6 nM; in test [4], 2.6 nM. In test [2], the “IC50, cell viability of A431 cells … (FIG. 18B)” value turned out to be 0.08 nM.

B7: anti-TF antibody 25G9 (antibody, human IgG1, V domains shown)
VH: QVQLVQSGAEVKKPGASVKVSCKASGYTFRSYGISWVRQAPGQGLEWMGWVAPYSGNTNYAQKLQGRVTMTTDTSTSTAYMELRSLRSDDTAVYYCARDAGTYSPYGYGMDVWGQGTTVTVSS
VL: DIQMTQSPSTLSASVGDRVTITCQASQSIDSWLAWYQQKPGKAPKLLIYSASYLESGVPSRFSGSGSGTEFTLTISSLQPDDFATYYCQRFQSLPPFTFGGGTKVEIK
notes: Human IgG1
As for B7, the Kd in test [3] stood at 4.2 nM; in test [4] it was 3.3 nM.

B8: anti-TF antibody 25A5 (antibody, human IgG1, V domains shown)
VH: QVQLVQSGAEVKKPGASVKVSCKASGYTFDVYGISWVRQAPGQGLEWMGWIAPYSGNTNYAQKLQGRVTMTTDTSTSTAYMELRSLRSDDTAVYYCARDAGTYSPFGYGMDVWGQGTTVTVSS
VL: DIQMTQSPSTLSASVGDRVTITCRASESISNWLAWYQQKPGKAPKLLIYKAYSLEYGVPSRFSGSGSGTEFTLTISSLQPDDFATYYCQQFQKLPPFTFGGGTKVEIK
notes: Human IgG1
Consider B8, for which the Kd is 5.4 nM in test [3] and 5.2 nM in test [4].

B9: anti-TF antibody 25A3 (antibody, human IgG1, V domains shown)
VH: QVQLVQSGAEVKKPGASVKVSCKASGYTFDVYGISWVRQAPGQGLEWMGWIAPYSGNTNYAQKLQGRVTMTTDTSTSTAYMELRSLRSDDTAVYYCARDAGTYSPFGYGMDVWGQGTTVTVSS
VL: DIQMTQSPSTLSASVGDRVTITCQASQSINNWLAWYQQKPGKAPKLLIYKAYNLESGVPSRFSGSGSGTEFTLTISSLQPDDFATYYCQLFQSLPPFTFGGGTKVEIK
notes: Human IgG1
On to B9, for which the “IC50, cell viability of A431 cells … (FIG. 18B)” value in test [2] was determined as 0.09 nM. The molecule further came in with a Kd in test [4] of 5.5 nM.

B10: anti-TF antibody 43D7 (antibody, human IgG1, V domains shown)
VH: QVQLQQWGAGLLKPSETLSLTCAVYGGSLSGYYWSWIRQPPGKGLEWIGEIGASGSTRYNPSLKSRVTISVDTSKNQFSLKLSSVTAADTAVYYCARDTPYYYEGGYYYYMDVWGKGTTVTVSS
VL: EIVLTQSPGTLSLSPGERATLSCRASDSVDSSYLAWYQQKPGQAPRLLIYGAFSRANGIPDRFSGSGSGTDFTLTISRLEPEDFAVYYCQQAGVVPYTFGGGTKVEIK
notes: Human IgG1
B10: the figures for the Kd in test [3] and in test [4] were 6.8 nM and 8.8 nM, respectively. The “IC50, cell viability of A431 cells … (FIG. 18B)” value in test [2] turned out to be 0.1 nM.

B11: anti-TF antibody 43D7 conjugated to MC-vc-PAB-MMAE (antibody, IgG1, V domains shown)
VH: QVQLQQWGAGLLKPSETLSLTCAVYGGSLSGYYWSWIRQPPGKGLEWIGEIGASGSTRYNPSLKSRVTISVDTSKNQFSLKLSSVTAADTAVYYCARDTPYYYEGGYYYYMDVWGKGTTVTVSS
VL: EIVLTQSPGTLSLSPGERATLSCRASDSVDSSYLAWYQQKPGQAPRLLIYGAFSRANGIPDRFSGSGSGTDFTLTISRLEPEDFAVYYCQQAGVVPYTFGGGTKVEIK
modifications: MC-vc-PAB-MMAE on cysteines of the partially reduced antibody (chain and positions not stated), DAR 3-4
As for B11, in test [1], the “IC50, cell viability of A431 cells … (FIG. 20B)” value turned out to be 0.28 nM and the “IC50, cell viability of A431 cells, Primary ADC, 4 hr, followed by washout, absence of FVIIa (FIG. 21A)” value (shortened to “IC50, cell viability of A431 cells … (FIG. 21A)”) stood at 0.14 nM. In test [2], the “IC50, cell viability of A431 cells … (FIG. 20A)” value stood at 0.06 nM; the “IC50, cell viability of HPAF-II cells, Primary ADC, Continuous (FIG. 22E)” value (“IC50, cell viability of HPAF-II cells” for short) came to 0.05 nM; the “IC50, cell viability of MDA-MB-231 cells, Primary ADC, Continuous (FIG. 22D)” value (from here on “IC50, cell viability of MDA-MB-231 cells”) is 0.14 nM.

B12: 43Ea-vc-MMAE (antibody, IgG1, V domains shown)
VH: QVQLQESGPGLVKPSQTLSLTCTVSGGSISSGQYWSWIRQHPGKGLEWIGEIYYSGSTRYNPSLKSRVTISVDTSKNQFSLKLSSVTAADTAVYYCARDTPYYYDGGYYYYMDVWGKGTTVTVSS
VL: EIVLTQSPGTLSLSPGERATLSCRASQSVSSSYLAWYQQKPGQAPRLLIYGASSRATGIPDRFSGSGSGTDFTLTISRLEPEDFAVYYCQQVGVVPYTFGGGTKVEIK
modifications: MC-vc-PAB-MMAE on cysteines of the partially reduced antibody (chain and positions not stated), DAR 3-4
Turning to B12, in test [1], the “IC50, cell viability of A431 cells … (FIG. 20B)” value was 0.43 nM and the “IC50, cell viability of A431 cells … (FIG. 21A)” value was 0.24 nM. In addition, in test [2], the “IC50, cell viability of A431 cells … (FIG. 20A)” value came to 0.09 nM; the “IC50, cell viability of HPAF-II cells” value was found to be 0.06 nM; the “IC50, cell viability of MDA-MB-231 cells” value was 0.15 nM.

B13: anti-TF antibody 43B1 conjugated to MC-vc-PAB-MMAE (antibody, IgG1, V domains shown)
VH: QVQLQESGPGLVKPSQTLSLTCTVSGGSISSGQYWSWIRQHPGKGLEWIGEIYYSGSTRYNPSLKSRVTISVDTSKNQFSLKLSSVTAADTAVYYCARDAPYYYGGGYYYYMDVWGKGTTVTVSS
VL: EIVLTQSPGTLSLSPGERATLSCRASESVDSSYLAWYQQKPGQAPRLLIYGASTRQTGIPDRFSGSGSGTDFTLTISRLEPEDFAVYYCQQAGVVPYTFGGGTKVEIK
modifications: MC-vc-PAB-MMAE on cysteines of the partially reduced antibody (chain and positions not stated), DAR 3-4
Consider B13, for which, in test [1], the “IC50, cell viability of A431 cells … (FIG. 20B)” value turned out to be 0.36 nM and the “IC50, cell viability of A431 cells … (FIG. 21A)” value came out at 0.19 nM. In test [2], the “IC50, cell viability of A431 cells … (FIG. 20A)” value is 0.08 nM; the “IC50, cell viability of HPAF-II cells” value is 0.05 nM; the “IC50, cell viability of MDA-MB-231 cells” value is 0.14 nM.

B14: anti-TF antibody 43D8 (antibody, human IgG1, V domains shown)
VH: QVQLQQWGAGLLKPSETLSLTCAVYGGSLSGYYWSWIRQPPGKGLEWIGEIGASGSTRYNPSLKSRVTISVDTSKNQFSLKLSSVTAADTAVYYCARDTPYYYEGGYYYYMDVWGKGTTVTVSS
VL: EIVLTQSPGTLSLSPGERATLSCRASQSVSSSFLAWYQQKPGQAPRLLIYGAYSRATGIPDRFSGSGSGTDFTLTISRLEPEDFAVYYCQQAGVVPYTFGGGTKVEIK
notes: Human IgG1
Turning to B14, the values for the equilibrium dissociation constant (Kd) in test [3] and in test [4] were 7.7 nM and 19.2 nM, respectively.
